Reference: US20200095340A1

B1: anti-DLL3 trispecific protein 4F09 (protein, part only; not given: anti-CD3 and anti-albumin domains, part only)
chain, part: EVQLVESGGGLVQPGGSLTLSCAASGSRVSFLSMAWYRQAPGKKRELVAGISADGSTDYIESVKGRFTISRDNAKNSVYLQMNSLRAEDTAVYYCYAYRWTTRYTYWGQGTLVTVSSGGGGSGGGSGGGGSGGGSHHHHHH
B2: anti-DLL3 trispecific protein 4E09 (protein, part only; not given: anti-CD3 fragment and anti-albumin sdAb, part only)
chain, part: EVQLVESGGGLVQPGGSLTLSCAASGSSVSFLSSAWYRQAPGKKRELVAGISADGSTLYIDSVKGRFTISRDNAKNSVYLQMNSLRAEDTAVYYCYAYRWTTRSTYWGQGTLVTVSSGGGGSGGGSGGGGSGGGSHHHHHH
B3: anti-DLL3 trispecific protein 3G04 (protein, part only; not given: CD3 binder and albumin binder, part only)
chain, part: EVQLVESGGGLVQPGGSLTLSCVASGTSVSFLSMAWYRQAPGKKRELVAGISADGSTIYIDSVKGRFTISRDNAKNSVYLQMNSLRAEDTAVYYCYAYRWTTRRTYWGQGTLVTVSSGGGGSGGGSGGGGSGGGSHHHHHH
B4: anti-DLL3 trispecific protein 4E010 (protein, part only; not given: anti-CD3 and anti-albumin domains, part only)
chain, part: EVQLVESGGGLVQPGGSLTLSCAASGSSVKFLSMAWYRQAPGKKRELVAGISADGSTDYIDSVKGRFTISRDNAKNSVYLQMNSLRAEDTAVYYCYAYRWRTRYTYWGQGTLVTVSSGGGGSGGGSGGGGSGGGSHHHHHH
B5: anti-DLL3 trispecific protein 4A07 (protein, part only; not given: CD3 binder and albumin binder, part only)
chain, part: EVQLVESGGGLVQPGGSLTLSCAASGSKVSFLSMAWYRQAPGKKRELVAGISADGSTLYIDSVKGRFTISRDNAKNSVYLQMNSLRAEDTAVYYCYAYRWTTRYRYWGQGTLVTVSSGGGGSGGGSGGGGSGGGSHHHHHH
B6: anti-DLL3 trispecific protein 4A02 (protein, part only; not given: anti-CD3 fragment and anti-albumin domain, part only)
chain, part: EVQLVESGGGLVQPGGSLTLSCAASGSSVRFLSMAWYRQAPGKKRELVAGISNDGSTDYIDSVKGRFTISRDNAKNSVYLQMNSLRAEDTAVYYCYAYRWKTRYTYWGQGTLVTVSSGGGGSGGGSGGGGSGGGSHHHHHH
B7: anti-DLL3 trispecific protein 3B011 (protein, part only; not given: anti-CD3 and anti-albumin domains, part only)
chain, part: EVQLVESGGGLVQPGGSLTLSCAASGSSVSFLSMAWYRQAPGKKRELVAGISADGSADYIDSVKGRFTISRDNAKNSVYLQMNSLRAEDTAVYYCYAYRWVTRYTYWGQGTLVTVSSGGGGSGGGSGGGGSGGGSHHHHHH
B8: anti-DLL3 trispecific protein 4D010 (protein, part only; not given: anti-CD3 fragment and anti-albumin sdAb, part only)
chain, part: EVQLVESGGGLVQPGGSLTLSCAASGSSVSFLSMAWYRQAPGKKRELVAGISADGSTDYIHSVKGRFTISRDNAKNSVYLQMNSLRAEDTAVYYCYAYRWRTRYTYWGQGTLVTVSSGGGGSGGGSGGGGSGGGSHHHHHH
B9: anti-DLL3 trispecific protein 4H08 (protein, part only; not given: anti-CD3 fragment and anti-albumin sdAb, part only)
chain, part: EVQLVESGGGLVQPGGSLTLSCAASGSSVKFLSMAWYRQAPGKKRELVAGISADGSTDYVDSVKGRFTISRDNAKNSVYLQMNSLRAEDTAVYYCYAYRWSTRYTYWGQGTLVTVSSGGGGSGGGSGGGGSGGGSHHHHHH
B10: anti-DLL3 trispecific protein 4F08 (protein, part only; not given: anti-CD3 and anti-albumin domains, part only)
chain, part: EVQLVESGGGLVQPGGSLTLSCAASGSKVSFLSMAWYRQAPGKKRELVAGISADGSTAYIDSVKGRFTISRDNAKNSVYLQMNSLRAEDTAVYYCYAYRWRTRYTYWGQGTLVTVSSGGGGSGGGSGGGGSGGGSHHHHHH
B11: anti-DLL3 trispecific protein 4G05 (protein, part only; not given: CD3 fragment and albumin sdAb, part only)
chain, part: EVQLVESGGGLVQPGGSLTLSCAASGSSVSILSMAWYRQAPGKKRELVAGISADGSTIYIDSVKGRFTISRDNAKNSVYLQMNSLRAEDTAVYYCYAYRWHTRYTYWGQGTLVTVSSGGGGSGGGSGGGGSGGGSHHHHHH
B12: anti-DLL3 trispecific protein 3H01 (protein, part only; not given: CD3 binder and albumin binder, part only)
chain, part: EVQLVESGGGLVQPGGSLTLSCVASGSSVKFLSMAWYRQAPGKKRELVAGISGDGSTTYIDSVKGRFTISRDNAKNSVYLQMNSLRAEDTAVYYCYAYRWTTRRTYWGQGTLVTVSSGGGGSGGGSGGGGSGGGSHHHHHH
B13: anti-DLL3 trispecific protein 4A05 (protein, part only; not given: anti-CD3 and anti-albumin domains, part only)
chain, part: EVQLVESGGGLVQPGGSLTLSCAASGSSVSFLSLAWYRQAPGKKRELVAGISADGSTDYIDSVKGRFTISRDNAKNSVYLQMNSLRAEDTAVYYCYAYRWKTRRTYWGQGTLVTVSSGGGGSGGGSGGGGSGGGSHHHHHH
B14: anti-DLL3 trispecific protein 4A09 (protein, part only; not given: anti-CD3 and anti-albumin domains, part only)
chain, part: EVQLVESGGGLVQPGGSLTLSCAASGSSVKFLSMAWYRQAPGKKRELVAGISADGSTDYIGSVKGRFTISRDNAKNSVYLQMNSLRAEDTAVYYCYAYRWTTRVTYWGQGTLVTVSSGGGGSGGGSGGGGSGGGSHHHHHH
B15: anti-DLL3 trispecific protein 3A04 (protein, part only; not given: CD3 binder and albumin binder, part only)
chain, part: EVQLVESGGGLVQPGGSLTLSCAASGSQVSFLSMAWYRQAPGKKRELVAGISRDGSTDYIDSVKGRFTISRDNAKNSVYLQMNSLRAEDTAVYYCYAYRWTTRYIYWGQGTLVTVSSGGGGSGGGSGGGGSGGGSHHHHHH
B16: anti-DLL3 trispecific protein 4F04 (protein, part only; not given: anti-CD3 fragment and anti-albumin sdAb, part only)
chain, part: EVQLVESGGGLVQPGGSLTLSCAASRSSVSFLSMAWYRQAPGKKRELVAGISTDGSTDYIDSVKGRFTISRDNAKNSVYLQMNSLRAEDTAVYYCYAYRWLTRYTYWGQGTLVTVSSGGGGSGGGSGGGGSGGGSHHHHHH
B17: anti-DLL3 trispecific protein 3C02 (protein, part only; not given: anti-CD3 and anti-albumin domains, part only)
chain, part: EVQLVESGGGLVQPGGSLTLSCAASGSSVRFLSMAWYRQAPGKKRELVAGISADGSTIYIDSVKGRFTISRDNAKNSVYLQMNSLRAEDTAVYYCYAYRWRTRYTYWGQGTLVTVSSGGGGSGGGSGGGGSGGGSHHHHHH
B18: anti-DLL3 trispecific protein 4G09 (protein, part only; not given: anti-CD3 fragment and anti-albumin domain, part only)
chain, part: EVQLVESGGGLVQPGGSLTLSCAASGSRVSFLSMAWYRQAPGKKRELVAGISYDGSTDYIDSVKGRFTISRDNAKNSVYLQMNSLRAEDTAVYYCYAYRWTTRRTYWGQGTLVTVSSGGGGSGGGSGGGGSGGGSHHHHHH
B19: anti-DLL3 trispecific protein 3H03 (protein, part only; not given: anti-CD3 fragment and anti-albumin domain, part only)
chain, part: EVQLVESGGGLVQPGGSLTLSCAASGSSVRFLSMAWYRQAPGKKRELVAGISTDGSTDYIDSVKGRFTISRDNAKNSVYLQMNSLRAEDTAVYYCYALRWTTRYTYWGQGTLVTVSSGGGGSGGGSGGGGSGGGSHHHHHH
B20: anti-DLL3 trispecific protein 4G010 (protein, part only; not given: anti-CD3 and anti-albumin domains, part only)
chain, part: EVQLVESGGGLVQPGGSLTLSCAASGHSVSFLSMAWYRQAPGKKRELVAGISADGSTDYIASVKGRFTISRDNAKNSVYLQMNSLRAEDTAVYYCYAYRWSTRYTYWGQGTLVTVSSGGGGSGGGSGGGGSGGGSHHHHHH
B21: anti-DLL3 trispecific protein 1B03 (protein, part only; not given: anti-CD3 and anti-albumin domains, part only)
chain, part: EVQLVESGGGLVQPGGSLTLSCVASGKTSSINAMAWYRRAPGKQRELVAGISSDGSKVYTDSVKGRFTISRDNAKNSVYLQMNSLRAEDTAVYYCYYFRTVSGSSARYWGQGTLVTVSSGGGGSGGGSGGGGSGGGSHHHHHH
B22: anti-DLL3 trispecific protein 1D012 (protein, part only; not given: anti-CD3 fragment and anti-albumin domain, part only)
chain, part: EVQLVESGGGLVQPGGSLTLSCVASGSTSHINAMGWYRRAPGKQRELVAGISSDGSRVYADSVKGRFTISRDNAKNSVYLQMNSLRAEDTAVYYCYYFRTVSGGSMRYWGQGTLVTVSSGGGGSGGGSGGGGSGGGSHHHHHH
B23: anti-DLL3 trispecific protein 1F01 (protein, part only; not given: CD3 fragment and albumin sdAb, part only)
chain, part: EVQLVESGGGLVQPGGSLTLSCVASGSTSSINAMGWYRRAPGKQRELVAGISSDGSKVYGDSVKGRFTISRDNAKNSVYLQMNSLRAEDTAVYYCYYFRTVSRSSMRYWGQGTLVTVSSGGGGSGGGSGGGGSGGGSHHHHHH
B24: anti-DLL3 trispecific protein 2A05 (protein, part only; not given: CD3 fragment and albumin sdAb, part only)
chain, part: EVQLVESGGGLVQPGGSLTLSCVASGRTSSINAMGWYRRAPGKQRELVAGISSDGSKVYNDSVKGRFTISRDNAKNSVYLQMNSLRAEDTAVYYCYYFRTVSGTSMRYWGQGTLVTVSSGGGGSGGGSGGGGSGGGSHHHHHH
B25: anti-DLL3 trispecific protein 1D04 (protein, part only; not given: CD3 fragment and albumin sdAb, part only)
chain, part: EVQLVESGGGLVQPGGSLTLSCVASGSTSSKNAMGWYRRAPGKQRELVAGISSDGSKVYADSVKGRFTISRDNAKNSVYLQMNSLRAEDTAVYYCYYFRTVSGASMRYWGQGTLVTVSSGGGGSGGGSGGGGSGGGSHHHHHH
B26: anti-DLL3 trispecific protein 2F01 (protein, part only; not given: anti-CD3 and anti-albumin domains, part only)
chain, part: EVQLVESGGGLVQPGGSLTLSCVASGSTSSINAMGWYRRAPGKQRELVAGISSDGSKVYSDSVKGRFTISRDNAKNSVYLQMNSLRAEDTAVYYCYYFRLVSGSSMRYWGQGTLVTVSSGGGGSGGGSGGGGSGGGSHHHHHH
B27: anti-DLL3 trispecific protein 2A06 (protein, part only; not given: CD3 binder and albumin binder, part only)
chain, part: EVQLVESGGGLVQPGGSLTLSCVASGSTSSRNAMGWYRRAPGKQRELVAGISSDGSKVTADSVKGRFTISRDNAKNSVYLQMNSLRAEDTAVYYCYYFRTRSGSSMRYWGQGTLVTVSSGGGGSGGGSGGGGSGGGSHHHHHH
B28: anti-DLL3 trispecific protein 2F02 (protein, part only; not given: anti-CD3 fragment and anti-albumin sdAb, part only)
chain, part: EVQLVESGGGLVQPGGSLTLSCVASGSTSSINAVGWYRRAPGKQRELVAGISSDGSKVYAGSVKGRFTISRDNAKNSVYLQMNSLRAEDTAVYYCYYFRTVSGSYMRYWGQGTLVTVSSGGGGSGGGSGGGGSGGGSHHHHHH
B29: anti-DLL3 trispecific protein 1B07 (protein, part only; not given: anti-CD3 and anti-albumin domains, part only)
chain, part: EVQLVESGGGLVQPGGSLTLSCVASGSGSSINAMGWYRRAPGKQRELVAGISSDGSKVYSDSVKGRFTISRDNAKNSVYLQMNSLRAEDTAVYYCYYFRHVSGSSMRYWGQGTLVTVSSGGGGSGGGSGGGGSGGGSHHHHHH
B30: anti-DLL3 trispecific protein 1F06 (protein, part only; not given: anti-CD3 and anti-albumin domains, part only)
chain, part: EVQLVESGGGLVQPGGSLTLSCVASGTTSSINAMGWYRRAPGKQRELVAGISSDGSKVIADSVKGRFTISRDNAKNSVYLQMNSLRAEDTAVYYCYYFRTVLGSSMRYWGQGTLVTVSSGGGGSGGGSGGGGSGGGSHHHHHH
B31: anti-DLL3 trispecific protein 1E08 (protein, part only; not given: anti-CD3 fragment and anti-albumin sdAb, part only)
chain, part: EVQLVESGGGLVQPGGSLTLSCVASGKTSSINAMGWYRRAPGKQRELVAGISSDGSKVIADSVKGRFTISRDNAKNSVYLQMNSLRAEDTAVYYCYYFRTVLGSSMRYWGQGTLVTVSSGGGGSGGGSGGGGSGGGSHHHHHH

Target: biotinylated human DLL3 protein expressed as a human IgG1 fusion protein (human) (UniProt Q9NYJ7)
Sequence (Q9NYJ7 other isoform, or with tags, fused parts or gaps): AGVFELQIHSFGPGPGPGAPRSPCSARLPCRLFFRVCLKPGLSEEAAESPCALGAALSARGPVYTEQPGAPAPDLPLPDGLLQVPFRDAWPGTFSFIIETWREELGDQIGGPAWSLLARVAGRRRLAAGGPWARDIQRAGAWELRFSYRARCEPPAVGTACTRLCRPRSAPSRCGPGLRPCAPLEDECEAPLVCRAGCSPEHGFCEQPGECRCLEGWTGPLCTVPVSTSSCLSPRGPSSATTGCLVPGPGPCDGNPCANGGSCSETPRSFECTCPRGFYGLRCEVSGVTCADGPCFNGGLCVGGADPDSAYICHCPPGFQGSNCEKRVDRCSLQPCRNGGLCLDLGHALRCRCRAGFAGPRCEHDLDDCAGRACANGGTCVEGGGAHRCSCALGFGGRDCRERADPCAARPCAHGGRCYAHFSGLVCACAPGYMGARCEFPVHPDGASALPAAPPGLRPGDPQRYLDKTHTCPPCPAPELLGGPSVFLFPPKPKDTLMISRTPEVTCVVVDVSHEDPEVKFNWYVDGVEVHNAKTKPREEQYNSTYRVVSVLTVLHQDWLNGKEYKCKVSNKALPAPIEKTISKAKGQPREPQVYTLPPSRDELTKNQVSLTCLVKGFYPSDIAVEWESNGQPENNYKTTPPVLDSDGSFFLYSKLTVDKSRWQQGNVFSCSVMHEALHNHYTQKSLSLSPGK
Assay: Octet BLI; biotinylated huDLL3-IgG1 fusion on streptavidin tips; single 50 nM; conditioned medium

Binder	Kd [nM]
B1	8.8
B2	9.1
B3	8.8
B4	9
B5	9.8
B6	9
B7	9
B8	9.9
B9	8.9
B10	9
B11	9.7
B12	9
B13	9.4
B14	9
B15	9.2
B16	9.8

Binder	Kd [nM]
B17	9.1
B18	8.8
B19	9.9
B20	9.9
B21	8.7
B22	9.3
B23	9.4
B24	8.9
B25	9.7
B26	9.2
B27	8.9
B28	9.6
B29	8.9
B30	8.9
B31	9.4
